What was measured:
[1] = substrate: C[C@H](O)C(=O)O; experiment: (§1) TP_TRANSPORTER: uptake in MCT1-expressing MDA-MB231 cells; format: functional, cell-based; conditions: MDA-MB-231
[2] = substrate: O=C(O)c1ccccc1; experiment: as §1; format: functional, cell-based; conditions: MDA-MB-231

B1: Monocarboxylate transporter 1 (Rattus norvegicus), P53987 (protein)
chain: MPPAIGGPVGYTPPDGGWGWAVVVGAFISIGFSYAFPKSITVFFKEIEIIFSATTSEVSWISSIMLAVMYAGGPISSILVNKYGSRPVMIAGGCLSGCGLIAASFCNTVQELYFCIGVIGGLGLAFNLNPALTMIGKYFYKKRPLANGLAMAGSPVFLSTLAPLNQAFFGIFGWRGSFLILGGLLLNCCVAGSLMRPIGPQQGKVEKLKSKESLQEAGKSDANTDLIGGSPKGEKLSVFQTVNKFLDLSLFTHRGFLLYLSGNVVMFFGLFTPLVFLSNYGKSKHFSSEKSAFLLSILAFVDMVARPSMGLAANTRWIRPRVQYFFAASVVANGVCHLLAPLSTTYVGFCIYAGVFGFAFGWLSSVLFETLMDLVGPQRFSSAVGLVTIVECCPVLLGPPLLGRLNDMYGDYKYTYWACGVILIIAGLYLFIGMGINYRLVAKEQKAEEKKRDGKEDETSTDVDEKPKKTMKETQSPAPLQNSSGDPAEEESPV
B1 gave a Km [1] of 2280 µM and a Km [2] of 3050 µM.
